Experiment [1] addresses Alexa Fluor 555-labeled E11C calmodulin mutant (UniProt P0DP23). Nature of the experiment: FRET or BRET.
Experiment [2] concerns the target Alexa Fluor 594-modified E11C CaM (UniProt P0DP23). The experiment is described as follows: FRET or BRET. (BRET reads energy transfer from a luciferase to a nearby fluorophore.)
Experiment [3] addresses calmodulin (CaM) cysteine mutant E11C (UniProt P0DP23). The experiment is described as follows: solvatochromic fluorescence.
Experiment [4] deals with calmodulin (CaM) cysteine mutant M145C (UniProt P0DP23). Nature of the experiment: solvatochromic fluorescence.
The target of experiment [5] is calmodulin (CaM) cysteine mutant M76C (UniProt P0DP23). The experiment is described as follows: solvatochromic fluorescence.
Experiment [6] has as its target calmodulin (CaM) cysteine mutant E11C (UniProt P0DP23). Nature of the experiment: FRET or BRET.

In experiment [1], “4DMN-labeled M13 peptide (M13, the calmodulin-binding peptide, with the 4DMN amino acid at position 8)” registered an FRET fluorescence increase (Ca2+-bound over apo-state) of 23 fold. The substance also gave an FRET fluorescence increase at 611 nm in experiment [2] of 5.5 fold. Moreover, in experiment [2], the increase of the direct fluorescence emission from 4DMN came out at 114 fold. In addition, the results for the 4DMN fluorescence increase at 505 nm (Ca2+-bound complex over apo-state) in experiment [3], in experiment [4] and in experiment [5] were 98 fold, 43 fold and 180 fold, respectively.
As to “4DMN/Alexa 555-labeled M13 peptide (4DMN at position 8, Alexa Fluor 555 on an N-terminal cysteine)”, in experiment [6], the increase in the acceptor fluorescence after Ca2+ addition was found to be 4.9 fold.

For the origin of these results see article PMC3776414.
